These results are taken from publication PMC12552534.

Test [1] concerns the target C terminally LgBiT-fused C protein (Sendai virus). Nature of the test: split reporter (BiFC, NanoBiT); NanoBiT; 293T cells co-transfected with LgBiT-fused C and SmBiT-fused STAT1, STAT3 or SV40 large T antigen (negative control), 24 h; luciferase activity measured in NP-40 lysates, normalised to GAPDH; control set to 1.
The target in test [2] is N terminally histidine-tagged N-terminal domain of STAT3 (STAT3ND) (human) (UniProt P40763). Nature of the test: SEC; Y3 and STAT3ND alone or mixed equimolar (100 μM in text and methods, 50 μM in the legend), preincubated 10 min on ice; Superdex 75 Increase 10/300 GL, 20 mM Tris-HCl pH 8.0, 100 mM NaCl, 4 °C, 0.5 ml/min; fractions on SDS-PAGE. A general note: Size exclusion chromatography separates by hydrodynamic size, large species first.

For test [3] the target is unchanged. Nature of the test: native MS; Y3 (50 μM) complexed with STAT3ND (50 μM), buffer-exchanged to 450 mM ammonium acetate pH 8.0, nano-ESI, native condition.
Test [4] has as its target N terminally histidine-tagged Y3 (C-terminal region of Sendai virus C protein) (Sendai virus). Described as above.

Sequence of C terminally LgBiT-fused C protein (Sendai virus) (P04862 1-204): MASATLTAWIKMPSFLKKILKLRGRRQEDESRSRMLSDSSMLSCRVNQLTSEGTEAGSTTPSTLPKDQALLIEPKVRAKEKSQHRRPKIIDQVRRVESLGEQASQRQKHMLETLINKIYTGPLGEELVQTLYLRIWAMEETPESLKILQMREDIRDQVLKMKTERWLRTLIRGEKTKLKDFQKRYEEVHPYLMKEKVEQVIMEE

In test [1], “N terminally SmBiT-fused STAT3 (from UniProt P40763 1-770) (natural protein)” displayed a luciferase activity, fold lower than with SmBiT-fused STAT1 of 4.8 fold and a luciferase activity, fold over the SmBiT-fused SV40 large T antigen negative control of 1.3 fold.

As usually defined, the stoichiometry N is the number of molecules, sites or subunits per partner or assembly. “N terminally histidine-tagged N-terminal domain of STAT3 (STAT3ND) (from UniProt P40763 3-138) (domain or fragment)”: the stoichiometry N in test [2] came out at 2.

The substance “N terminally histidine-tagged Y3 (C-terminal region of Sendai virus C protein) (domain or fragment)” came in with a stoichiometry N (Y3 per STAT3ND (1:2)) in test [3] of 0.5. For the same substance, the stoichiometry N in test [4] was 2.
